# Assay results as given in US20180009871A1 (INTARCIA THERAPEUTICS, published 2018).
# Where no end group is shown, it is not given here. [ ]: non-standard residue; d: D form. Aib = CC(C)(N)C(=O)O
# B1: Compound A15 (peptide)
# peptide: YSHGTFTSDYSKYLD[Aib]SRAQEFV[Aib]WLEDEPSSGAPPPS-OH
# modifications: N-terminus assumed
# SMILES: CC(C)C[C@H](NC(=O)[C@H](Cc1ccc(O)cc1)NC(=O)[C@H](CCCCN)NC(=O)[C@H](CO)NC(=O)[C@H](Cc1ccc(O)cc1)NC(=O)[C@H](CC(=O)O)NC(=O)[C@H](CO)NC(=O)[C@@H](NC(=O)[C@H](Cc1ccccc1)NC(=O)[C@@H](NC(=O)CNC(=O)[C@H](Cc1c[nH]cn1)NC(=O)[C@H](CO)NC(=O)[C@@H](N)Cc1ccc(O)cc1)[C@@H](C)O)[C@@H](C)O)C(=O)N[C@@H](CC(=O)O)C(=O)NC(C)(C)C(=O)N[C@@H](CO)C(=O)N[C@@H](CCCNC(=N)N)C(=O)N[C@@H](C)C(=O)N[C@@H](CCC(N)=O)C(=O)N[C@@H](CCC(=O)O)C(=O)N[C@@H](Cc1ccccc1)C(=O)N[C@H](C(=O)NC(C)(C)C(=O)N[C@@H](Cc1c[nH]c2ccccc12)C(=O)N[C@@H](CC(C)C)C(=O)N[C@@H](CCC(=O)O)C(=O)N[C@@H](CC(=O)O)C(=O)N[C@@H](CCC(=O)O)C(=O)N1CCC[C@H]1C(=O)N[C@@H](CO)C(=O)N[C@@H](CO)C(=O)NCC(=O)N[C@@H](C)C(=O)N1CCC[C@H]1C(=O)N1CCC[C@H]1C(=O)N1CCC[C@H]1C(=O)N[C@@H](CO)C(=O)O)C(C)C
# B2: Compound A16 (peptide)
# peptide: YSHGTFTSDYSKYLD[Aib]TRAQEFV[Aib]WLEDEPSSGAPPPS-OH
# modifications: N-terminus assumed
# SMILES: CC(C)C[C@H](NC(=O)[C@H](Cc1ccc(O)cc1)NC(=O)[C@H](CCCCN)NC(=O)[C@H](CO)NC(=O)[C@H](Cc1ccc(O)cc1)NC(=O)[C@H](CC(=O)O)NC(=O)[C@H](CO)NC(=O)[C@@H](NC(=O)[C@H](Cc1ccccc1)NC(=O)[C@@H](NC(=O)CNC(=O)[C@H](Cc1c[nH]cn1)NC(=O)[C@H](CO)NC(=O)[C@@H](N)Cc1ccc(O)cc1)[C@@H](C)O)[C@@H](C)O)C(=O)N[C@@H](CC(=O)O)C(=O)NC(C)(C)C(=O)N[C@H](C(=O)N[C@@H](CCCNC(=N)N)C(=O)N[C@@H](C)C(=O)N[C@@H](CCC(N)=O)C(=O)N[C@@H](CCC(=O)O)C(=O)N[C@@H](Cc1ccccc1)C(=O)N[C@H](C(=O)NC(C)(C)C(=O)N[C@@H](Cc1c[nH]c2ccccc12)C(=O)N[C@@H](CC(C)C)C(=O)N[C@@H](CCC(=O)O)C(=O)N[C@@H](CC(=O)O)C(=O)N[C@@H](CCC(=O)O)C(=O)N1CCC[C@H]1C(=O)N[C@@H](CO)C(=O)N[C@@H](CO)C(=O)NCC(=O)N[C@@H](C)C(=O)N1CCC[C@H]1C(=O)N1CCC[C@H]1C(=O)N1CCC[C@H]1C(=O)N[C@@H](CO)C(=O)O)C(C)C)[C@@H](C)O
# B3: Compound A17 (peptide)
# peptide: YSHGTFTSDYSKYLD[Aib]ERAQEFV[Aib]WLEDEPSSGAPPPS-OH
# modifications: N-terminus assumed
# SMILES: CC(C)C[C@H](NC(=O)[C@H](Cc1ccc(O)cc1)NC(=O)[C@H](CCCCN)NC(=O)[C@H](CO)NC(=O)[C@H](Cc1ccc(O)cc1)NC(=O)[C@H](CC(=O)O)NC(=O)[C@H](CO)NC(=O)[C@@H](NC(=O)[C@H](Cc1ccccc1)NC(=O)[C@@H](NC(=O)CNC(=O)[C@H](Cc1c[nH]cn1)NC(=O)[C@H](CO)NC(=O)[C@@H](N)Cc1ccc(O)cc1)[C@@H](C)O)[C@@H](C)O)C(=O)N[C@@H](CC(=O)O)C(=O)NC(C)(C)C(=O)N[C@@H](CCC(=O)O)C(=O)N[C@@H](CCCNC(=N)N)C(=O)N[C@@H](C)C(=O)N[C@@H](CCC(N)=O)C(=O)N[C@@H](CCC(=O)O)C(=O)N[C@@H](Cc1ccccc1)C(=O)N[C@H](C(=O)NC(C)(C)C(=O)N[C@@H](Cc1c[nH]c2ccccc12)C(=O)N[C@@H](CC(C)C)C(=O)N[C@@H](CCC(=O)O)C(=O)N[C@@H](CC(=O)O)C(=O)N[C@@H](CCC(=O)O)C(=O)N1CCC[C@H]1C(=O)N[C@@H](CO)C(=O)N[C@@H](CO)C(=O)NCC(=O)N[C@@H](C)C(=O)N1CCC[C@H]1C(=O)N1CCC[C@H]1C(=O)N1CCC[C@H]1C(=O)N[C@@H](CO)C(=O)O)C(C)C
# Target: human glucagon receptor (GCGR) (human, UniProt P47871 26-477)
# Assay: cell-based or functional assay
row,Binder,hGCGR pEC50 (cAMP) [pEC50]
1,B1,11.4
2,B2,11.9
3,B3,11.1

# Target: human GLP-1 receptor (GLP-1R) (human, UniProt P43220 24-463)
# Sequence (P43220 24-463): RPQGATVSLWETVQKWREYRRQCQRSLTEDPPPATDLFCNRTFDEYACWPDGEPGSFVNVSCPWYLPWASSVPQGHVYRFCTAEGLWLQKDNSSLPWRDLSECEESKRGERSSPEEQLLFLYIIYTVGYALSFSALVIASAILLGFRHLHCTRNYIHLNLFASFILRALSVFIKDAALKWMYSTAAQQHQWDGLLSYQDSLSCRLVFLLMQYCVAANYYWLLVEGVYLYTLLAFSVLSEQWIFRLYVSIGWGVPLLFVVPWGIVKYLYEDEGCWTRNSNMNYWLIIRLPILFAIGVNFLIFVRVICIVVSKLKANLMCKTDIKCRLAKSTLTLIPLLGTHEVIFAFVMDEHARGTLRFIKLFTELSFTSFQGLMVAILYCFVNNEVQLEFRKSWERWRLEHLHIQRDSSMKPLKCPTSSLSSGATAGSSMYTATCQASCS
# Assay: cell-based or functional assay
row,Binder,hGLP1 pEC50 (cAMP) [pEC50]
1,B1,< 9
2,B2,< 9
3,B3,< 9
